Molecular target: the molecule itself
Assay: SEC

B1: MgtE Mg2+ channel from Thermus thermophilus (wild type) (natural protein, UniProt Q5SMG8 1-450, looked up)
chain: MEEKLAVSLQEALQEGDTRALREVLEEIHPQDLLALWDELKGEHRYVVLTLLPKAKAAEVLSHLSPEEQAEYLKTLPPWRLREILEELSLDDLADALQAVRKEDPAYFQRLKDLLDPRTRAEVEALARYEEDEAGGLMTPEYVAVREGMTVEEVLRFLRRAAPDAETIYYIYVVDEKGRLKGVLSLRDLIVADPRTRVAEIMNPKVVYVRTDTDQEEVARLMADYDFTVLPVVDEEGRLVGIVTVDDVLDVLEAEATEDIHKLGAVDVPDLVYSEAGPVALWLARVRWLVILILTGMVTSSILQGFESVLEAVTALAFYVPVLLGTGGNTGNQSATLIIRALATRDLDLRDWRRVFLKEMGVGLLLGLTLSFLLVGKVYWDGHPLLLPVVGVSLVLIVFFANLVGAMLPFLLRRLGVDPALVSNPLVATLSDVTGLLIYLSVARLLLEAV
  stoichiometry N: 2
